T1: GrxD (recombinant full-length GrxD after removal of the His-tag by TEV protease) (A. fumigatus, UniProt Q4X024 1-271)
T1 construct: GrxD of Aspergillus fumigatus (Afu2g14960), full length, from a synthetic gene; Residues of the TEV site may be left at the C-terminus after cleavage (surmise); source: E. coli BL21(DE3), co-expressed with HapX^161-491, purified (Ni-Sepharose, TEV protease, Superdex 200 SEC); not shown: His6, C-terminal, cleaved
T1 sequence (looked up): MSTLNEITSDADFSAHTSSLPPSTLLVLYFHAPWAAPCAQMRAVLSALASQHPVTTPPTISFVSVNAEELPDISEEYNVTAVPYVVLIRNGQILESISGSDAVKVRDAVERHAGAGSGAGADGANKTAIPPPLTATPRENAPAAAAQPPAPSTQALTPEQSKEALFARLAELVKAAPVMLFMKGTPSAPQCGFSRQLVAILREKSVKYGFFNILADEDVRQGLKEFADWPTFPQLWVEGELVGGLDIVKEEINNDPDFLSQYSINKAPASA

B1: HapX^161-491 (A. fumigatus HapX C-terminus with all four cysteine-rich regions) (domain or fragment, UniProt Q4WER3 161-491, looked up)
chain: KGLAPLTTSTPQARSSDRPDNGDASNNDSGEGREEVPLGCNDCSTSHCQCIEDAFTMPGVVAQEQSRRLDTTKPGLSEPQIKPDPEEMEIDFTSRFAATQQQDQSPTSVSSPAVDPCGFCSDGTPCICAEMAAQEEQRPRRNSFENNRLAPIQNLSQFTPPPSDGDVRSDVTLPPISQATNPCANGPGTCAQCLADPRRTLFCKTLAASRSPSAAPSGCCGGKGADGGCCQSRNTNVSRGRSGSNNNTSSGSSAAPSLTLSCADAYTTLSRHPNFSRATDELSTWLPKLHTLPKPRDFPLTDRGVPRAALEVEAASVMGVLRYFDRRFADK
notes: HapX of Aspergillus fumigatus (Afu5g03920), amino acids 161-491 (cysteine-rich C-terminus), from a synthetic gene; also called AfuHapX^161-491; pnCS-HapX161-491; source: E. coli BL21(DE3), untagged, bicistronically co-expressed with GrxD-His6; in crude cell extract, then co-purified (Ni-Sepharose, SEC)

How the values were obtained:
[1] = molecular target: T1, GrxD (recombinant full-length GrxD …); assay: SEC; Ni-chelate eluate digested with TEV protease and loaded on Superdex 200 prep grade 26/60 in 25 mM HEPES pH 7.5, 150 mM NaCl, 2 mM glutathione; apparent masses from protein calibration standards; fractions checked by SDS-PAGE; settings: both partners purified
[2] = molecular target: B1; assay: as above; settings: both partners purified

Binder	stoichiometry N [1]	binding result [2]
B1	~1 HapX^161-491 per GrxD (2:2)	–
GrxD^C191A (recombinant GrxD with cysteine 191 mutated to alanine) (natural protein, GrxD of Aspergillus fumigatus (Afu2g14960), full length, C191 of the CGFS motif mutated to A; source: E. coli BL21(DE3), co-produced with HapX^161-491, purified (Ni-chelate, TEV protease, SEC); not shown: His6, C-terminal, cleaved) MSTLNEITSDADFSAHTSSLPPSTLLVLYFHAPWAAPCAQMRAVLSALASQHPVTTPPTISFVSVNAEELPDISEEYNVTAVPYVVLIRNGQILESISGSDAVKVRDAVERHAGAGSGAGADGANKTAIPPPLTATPRENAPAAAAQPPAPSTQALTPEQSKEALFARLAELVKAAPVMLFMKGTPSAPQAGFSRQLVAILREKSVKYGFFNILADEDVRQGLKEFADWPTFPQLWVEGELVGGLDIVKEEINNDPDFLSQYSINKAPASA	–	binds
